Results from paper doi:10.1101/559534v1 (biorxiv, 2019).
Substitutions are numbered along the chain they refer to. Names may count otherwise.

Legend:
[1] = biological target: T1, ATRR (ATR1R2) (Aspergillus nidulans, UniProt A0A1U8QWA2); assay: glycine betaine reductase inhibition kinetics; format: biochemical
T1 sequence (A0A1U8QWA2 1-1270): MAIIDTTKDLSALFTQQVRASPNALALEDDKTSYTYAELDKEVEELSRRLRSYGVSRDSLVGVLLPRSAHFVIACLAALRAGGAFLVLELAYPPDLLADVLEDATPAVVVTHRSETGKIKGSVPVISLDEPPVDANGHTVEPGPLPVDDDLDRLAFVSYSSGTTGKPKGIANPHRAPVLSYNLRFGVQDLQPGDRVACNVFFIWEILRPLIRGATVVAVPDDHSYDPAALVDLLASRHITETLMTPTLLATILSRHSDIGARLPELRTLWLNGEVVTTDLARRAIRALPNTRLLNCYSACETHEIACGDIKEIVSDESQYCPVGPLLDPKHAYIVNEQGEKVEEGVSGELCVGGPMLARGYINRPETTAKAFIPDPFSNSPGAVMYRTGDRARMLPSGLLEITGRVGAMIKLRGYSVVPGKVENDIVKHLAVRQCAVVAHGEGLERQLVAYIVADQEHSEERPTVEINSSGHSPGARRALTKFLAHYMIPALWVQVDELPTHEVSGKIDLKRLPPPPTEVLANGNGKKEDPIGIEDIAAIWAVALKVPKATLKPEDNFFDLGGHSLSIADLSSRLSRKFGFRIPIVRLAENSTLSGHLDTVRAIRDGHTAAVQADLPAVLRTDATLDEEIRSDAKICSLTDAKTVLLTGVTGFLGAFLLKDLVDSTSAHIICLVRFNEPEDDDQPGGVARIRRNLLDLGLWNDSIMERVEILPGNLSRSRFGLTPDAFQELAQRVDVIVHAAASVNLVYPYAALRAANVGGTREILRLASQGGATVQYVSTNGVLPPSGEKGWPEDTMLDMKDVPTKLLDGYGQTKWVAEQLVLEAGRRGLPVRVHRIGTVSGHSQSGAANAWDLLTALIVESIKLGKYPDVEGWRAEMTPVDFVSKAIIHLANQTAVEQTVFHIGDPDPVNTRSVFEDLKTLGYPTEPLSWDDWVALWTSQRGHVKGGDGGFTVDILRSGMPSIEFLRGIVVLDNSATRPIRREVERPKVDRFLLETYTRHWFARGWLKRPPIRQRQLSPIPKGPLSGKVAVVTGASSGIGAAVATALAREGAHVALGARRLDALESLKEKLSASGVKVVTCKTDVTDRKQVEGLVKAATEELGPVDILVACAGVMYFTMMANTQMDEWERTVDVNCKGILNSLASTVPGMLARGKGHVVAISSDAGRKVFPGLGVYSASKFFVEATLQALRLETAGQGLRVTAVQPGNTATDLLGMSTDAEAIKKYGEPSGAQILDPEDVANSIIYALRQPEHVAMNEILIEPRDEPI

[2] = biological target: T1, ATRR (ATR1R2); assay: carboxylic acid reductase steady-state kinetics; format: biochemical; details: substrate inhibition
[3] = substrate: C[N+](C)(C)CC=O; assay: purified protein; details: NADPH as co-substrate
[4] = substrate: C[N+](C)(C)CC(=O)[O-]; assay: carboxylic acid reductase steady-state kinetics, NADPH oxidation; format: biochemical, Aspergillus nidulans; details: ATP and NADPH as co-substrates; R2 inactivated
[5] = substrate: CN(C)CC(=O)O; assay: purified protein; details: ATP and NADPH as co-substrates; fit with substrate inhibition
[6] = substrate: C[N+](C)(C)CC(=O)[O-]; assay: purified protein; format: biochemical, Aspergillus nidulans; details: holo-enzyme; ATP and NADPH as co-substrates

CN(C)C [N(CH3)3H+Cl-]
Ki [1]: 2600 ± 500 µM

CN(C)CC(=O)O [N,N-Dimethylglycine]
Ki [2]: 48000 ± 9000 µM

C[N+](C)(C)CCO [Choline]
Ki [1]: 270 ± 30 µM

B1: ATRR (ATR1R2) (Aspergillus nidulans FGSC A4; Y812F) (protein)
chain: T1 sequence (A0A1U8QWA2 1-1270) with Y812F
Km ([3]; R1 inactivated): 240 ± 30 µM
kcat ([3]; R1 inactivated): 7.0 ± 0.2 s⁻¹

B2: ATRR (ATR1R2) (Aspergillus nidulans FGSC A4; G1036A/Y1178F) (protein)
chain: T1 sequence (A0A1U8QWA2 1-1270) with G1036A, Y1178F
Km ([3]; R2 inactivated): 2600 ± 500 µM
kcat ([3]; R2 inactivated): 0.018 ± 0.001 s⁻¹
Km [4]: 2200 ± 300 µM
kcat [4]: 0.66 ± 0.02 s⁻¹

B3: ATRR (ATR1R2) (Aspergillus nidulans FGSC A4; Y1178F) (protein)
chain: T1 sequence (A0A1U8QWA2 1-1270) with Y1178F
Km ([3]; R2 inactivated): 1500 ± 600 µM
kcat ([3]; R2 inactivated): 0.30 ± 0.04 s⁻¹
Km [4]: 2200 ± 200 µM
kcat [4]: 0.72 ± 0.02 s⁻¹

B4: ATRR (ATR1R2) (Aspergillus nidulans FGSC A4) (protein)
chain: T1 sequence (A0A1U8QWA2 1-1270)
Km [5]: 5800 ± 800 µM
kcat [5]: 0.023 ± 0.002 s⁻¹
Km ([3]; R2 site): 240 ± 30 µM
kcat ([3]; R2 site): 7.1 ± 0.3 s⁻¹
Km [6]: 2100 ± 200 µM
kcat [6]: 0.94 ± 0.03 s⁻¹
